Test results as given in IntAct's records for PubMed 33368531.

B1: Centriole and centriolar satellite protein OFD1 (Homo sapiens), O75665 (parent)
chain: MMAQSNMFTVADVLSQDELRKKLYQTFKDRGILDTLKTQLRNQLIHELMHPVLSGELQPRSISVEGSSLLIGASNSLVADHLQRCGYEYSLSVFFPESGLAKEKVFTMQDLLQLIKINPTSSLYKSLVSGSDKENQKGFLMHFLKELAEYHQAKESCNMETQTSSTFNRDSLAEKLQLIDDQFADAYPQRIKFESLEIKLNEYKREIEEQLRAEMCQKLKFFKDTEIAKIKMEAKKKYEKELTMFQNDFEKACQAKSEALVLREKSTLERIHKHQEIETKEIYAQRQLLLKDMDLLRGREAELKQRVEAFELNQKLQEEKHKSITEALRRQEQNIKSFEETYDRKLKNELLKYQLELKDDYIIRTNRLIEDERKNKEKAVHLQEELIAINSKKEELNQSVNRVKELELELESVKAQSLAITKQNHMLNEKVKEMSDYSLLKEEKLELLAQNKLLKQQLEESRNENLRLLNRLAQPAPELAVFQKELRKAEKAIVVEHEEFESCRQALHKQLQDEIEHSAQLKAQILGYKASVKSLTTQVADLKLQLKQTQTALENEVYCNPKQSVIDRSVNGLINGNVVPCNGEISGDFLNNPFKQENVLARMVASRITNYPTAWVEGSSPDSDLEFVANTKARVKELQQEAERLEKAFRSYHRRVIKNSAKSPLAAKSPPSLHLLEAFKNITSSSPERHIFGEDRVVSEQPQVGTLEERNDVVEALTGSAASRLRGGTSSRRLSSTPLPKAKRSLESEMYLEGLGRSHIASPSPCPDRMPLPSPTESRHSLSIPPVSSPPEQKVGLYRRQTELQDKSEFSDVDKLAFKDNEEFESSFESAGNMPRQLEMGGLSPAGDMSHVDAAAAAVPLSYQHPSVDQKQIEEQKEEEKIREQQVKERRQREERRQSNLQEVLERERRELEKLYQERKMIEESLKIKIKKELEMENELEMSNQEIKDKSAHSENPLEKYMKIIQQEQDQESADKSSKKMVQEGSLVDTLQSSDKVESLTGFSHEELDDSW

Variants of: B1
Conditions: with gbrap_human GABARAP

effect of a mutation on the interaction	Variant
disrupting interaction	Y961A;I964A

Variants of: B1
Conditions: with mlp3b_human MAP1LC3B

effect of a mutation on the interaction	Variant
disrupting interaction	Y961A;I964A

Variants of: B1
Conditions: with gbrap_human GABARAP
Remark: another data set of the same source

effect of a mutation on the interaction	Variant
disrupting interaction	Y961A;I964A
